Test results reported in patent US9260754B2, “Connexin mutation detection for lymphatic variation and disease” (University of Pittsburgh—Of the Commonwealth System of …, priority 2010, dated 2016).
Residue numbers refer to the chain shown, from its start. Names may count otherwise. Where no end group is shown, it is not given here.

Legend:
[1] = system: hTERTs (telomerase-transfected human dermal lymphatic endothelial cells); assay: Intercellular communication assay (parachute Calcein AM dye transfer) with gap junction inhibitors; assay type: cell-based; details: GRA 10 μM, Gap 27 500 μM, 40 min, versus control, p<0.05
Protocol: To characterize intercellular gap junction communication over time between seeded donor cells and an acceptor monolayer, LECs were loaded with 2.5 μM Calcein-AM (Invitrogen) in (PBS) for 30 min at 37° C. Excessive dye was removed by rinsing three times in PBS before dislodgment using 500 μl 0.25% Trypsin-EDTA. Detached cells were dispersed with a pipette and 10 μl cell suspensions was added to a confluent LEC monolayer in MCDB-131 supplemented with 25 mM HEPES. To ensure attachment of dye loaded suspended cells, the dish was incubated at 37° C. for 40 min prior to syringe filtration of the medium to remove floating cells that would interfere with subsequent imaging. The dish was thereafter mounted in a temperature controlled open chamber microincubator (Harvard Apparatus) on an inverted Olympus IX81 microscope. […] The Gap27 was handled similarly to GRA and a DMSO control was measured on the same day. Significance was assigned at p<0.05 and treatments were analyzed as independent samples using a Student's t-test. […]
Calcein AM allows cell permeable loading, and with a molecular weight of 662, is frequently used in gap junction communication studies. […] Replicate blinded experiments were performed on at least 2 separate days, and quantitation of dye spread was determined in an automated manner using Metamorph and standardized regions of interest with auto-thresholding. […]

[2] = system: Adult human dermal lymphatic microvascular endothelial cells; assay: Lucifer yellow microinjection dye spread in lymphatic endothelial cells expressing mutant constructs; assay type: cell-based; details: for LEC spread: Dye spread to tiers of LECs after 2 min, Lucifer yellow microinjection, mean ± SEM; for dye transfer of Lucifer yellow after microinjection compared to WT-hCx47-EGFP expressing LECs (in words): LECs expressing the mutations
Protocol: Adult human dermal lymphatic microvascular endothelial cells were cultured in EGM™-2 MV (both from Lonza). Cells were electroporated with 2 μg cDNA of the EGFP tagged mutant constructs and then selected with G418 as described above. Cells were microinjected using a combination (1:4 ratio) of 70 kd Texas Red dextran (Invitrogen) to mark injected cell for reference and Lucifer yellow, a known gap junction permeable dye (m.w. 443, −2 charge), to assess change in extent of spread (Abbaci M, et al. Advantages and limitations of commonly used methods to assay the molecular permeability of gap junctional intercellular communication. Biotechniques 2008; 45:33-52, 6-62). All cells were injected using constant conditions and cells were scored for dye spread in tiers from reference cell, using constant exposure time and thresholding, and were imaged using a Nikon TE2000 with temperature controlled motorized stage and Qlmaging Retiga CCD camera. Images were obtained using differential interference contrast (DIC) and standard filters for EGFP (identify expression of mutation), DAPI (for Lucifer yellow) and dsRed (for dextran) preinjection, immediately post-injection and 2 min after injection. Results were calculated as mean SEM and statistical significance was determined in comparison to WT-hCx47-EGFP expressing cells using a Mann-Whitney Test.

[3] = system: HeLa cells; assay: Wound assay (proliferation/migration) in confluent transfected HeLa cells; assay type: cell-based, human; details: fraction of original wound in HeLa cell monolayer after 24 hrs; mean ± SEM
Protocol: The wound assay, a measure of proliferation/migration, was performed using differential interference contrast time lapse of over 24 hrs using confluent transfected HeLa cells. Analysis was done using TScratch (Geback T, et al. TScratch: a novel and simple software tool for automated analysis of monolayer wound healing assays. Biotechniques 2009; 46:265-74), mean±SEM of at least 10 positions along wound; the scrape width was normalized to the first image for each position. In all cases a two tailed student's T test was applied with p<0.05 considered significant.

[4] = system: HeLa cell pairs; assay: Dual whole cell patch clamp recording of coupling current in transfected HeLa cell pairs; assay type: cell-based, human; details: for electrical coupling: Table 6 (Example 4), HeLa cell pairs, 100 mV step, mean ± SEM; for electrical coupling / functional channels in HeLa cell pairs (in words): transfected HeLa cell pairs, voltage step protocol −100 to +100 mV
Protocol: Coupling currents were recorded using simultaneous double whole-cell patch clamp recordings from isolated pairs of cells that were in contact with one another (determined visually) as previously described. Briefly, the pipette solution consisted of (mM): 130 CsCl, 10 EGTA, 10 HEPES, 3 Mg-ATP, 2 Na-ATP, 0.5 CaCl2, pH 7.3. The culture was bathed in a solution consisting of (mM): 140 NaCl, 5 HEPES, 5 glucose, 4 KCl, 2 CsCl, 2 CaCl2, 2 pyruvate, 1 BaCl2, pH 7.3. Transfected HeLas undergo electrophysiologic analysis in a blinded manner. Pairs of cells were chosen for study only if both expressed the GFP marker indicative of successful transfections; both stable and transient transfectants were analyzed. Patch pipettes were fabricated from borosilicate glass, and coupling currents were amplified by Axopatch 200A amplifiers, filtered at 1 KHz, and digitized at 5 KHz for subsequent analysis using pClamp software (Axon Instruments/Molecular Devices; Sunnyvale, Calif.). All experiments were carried out at room temperature (22° C.). Coupling current was quantified by measuring the peak current recorded in the pair when the neighboring cell received a 100 mV step membrane potential change (in both positive and negative directions). Step changes in membrane potential were delivered to each cell in the pair in sequence and the average current recorded in the neighboring cell was determined and divided by 100 to generate coupling current expressed in pA/mV. Means±SEM were calculated and statistical significance using a one-way analysis of variance and Tukey's post-hoc test, p<0.05.
Coupling current is quantified by measuring the peak current recorded in the pair when the neighboring cell receives a 100 mV step membrane potential change (in both positive and negative directions). Step changes in membrane potential are delivered to each cell in the pair in sequence and the average current recorded in the neighboring cell determined and divided by 100 to generate coupling current expressed in pA/mV (FIG. 6C). Replicate measurements (n=3-6) are made on at least two different days. […] The untransfected HeLa cell pairs also show minimal channel function, as predicted.
Electrophysiologic characteristics of GJIC were measured between HeLa cell pairs transfected with the mutant constructs (as indicated by EGFP expression) by dual whole cell patch clamp recording. All experiments were carried out in a blinded manner. Coupling current is quantified by measuring the peak current recorded in the pair when the neighboring cell receives a 100 mV step membrane potential change (in both positive and negative directions). Step changes in membrane potential are delivered to each cell in the pair in sequence and the average current recorded in the neighboring cell determined and divided by 100 to generate coupling current expressed in pA/mV. Untransfected HeLa cells and cells transfected with empty vector (i.e., no hCx47) were used as additional controls.

[5] = system: HeLa cells; assay: Cx47 gap junction plaque formation by immunofluorescent confocal microscopy in transfected HeLa cells; assay type: cell-based, human; details: near confluent transfected HeLa cells
Protocol: Human neonatal foreskin was collected anonymously as discarded tissue according to an IRB protocol. Samples were collected immediately after harvest in DMEM, then fixed in 2% paraformaldehyde for 2 hrs, then stored in 30% sucrose in 1×PBS overnight for cryosectioning, and sectioned in 6 μm slices at −30° C. Transfected (stable and transient) and untransfected HeLa cells were grown to near confluence in coverslip bottom dishes. All cells were rinsed with PBS and fixed with 2% paraformaldehyde. Subsequently, tissue and HeLa cells were processed similarly: following permeabilization with 0.1% Triton X, cells were blocked with 2% BSA. A human Cx47 antibody (ab) was obtained from the S. Scherer laboratory: polyclonal rabbit against amino acids 344-399 in the cytoplasmic C-terminal tail; we used human CNS tissue and positive oligodendrocyte staining as a positive control and primary antibody delete and rabbit IgG as negative controls (data not shown). Cx47 ab was diluted in 0.5% BSA in a 1:200 ratio, applied to cells and incubated at RT for one hour. Mouse monoclonal Proxl (Chemicon) was used as a lymphatic marker for the foreskin samples. Cells were incubated with the secondary abs (Donkey Anti-Rabbit Cy5 and Donkey Anti-Mouse Cy3; Invitrogen) for one hour at RT and washed; Draq5 was used as a nuclear marker. HeLa images were acquired with an inverted Olympus Fluoview 1000 Confocal Microscope 100× oil, 1.4 NA objective. Foreskin images were acquired on a Zeiss Meta LSM 510 inverted confocal microscope with 40× oil, 1.3 N.A. objective. LECs (primary human microvascular adult dermal lymphatics; Lonza) were grown in fibronectin coated coverslip bottom MatTeks dishes in EGM™-2 MV—Microvascular Endothelial Cell Medium-2 (Lonza Inc.) to approximately 80% confluence, and prepared similarly but a commercially available (AbCam) Cx47 ab, polyclonal rabbit against amino acids 41-70 in the human sequence was used along with Drag 5 nuclear marker and phalloidin to mark f-actin.
Immunofluorescence microscopy determines the presence or absence of Cx47 gap junction plaques when the constructs are transiently expressed in HeLa cells. Cx plaques reflect a physiologic accumulation of Cx channels in the cell membrane between cells (tens to thousands of channels); thus plaques are indicative of normal trafficking and gap junction formation at the cell membrane.
Immunofluorescence microscopy determines the presence or absence of Cx47 gap junction plaques when the constructs are transiently expressed in HeLa cells. A human Cx47 antibody was obtained: polyclonal rabbit against amino acids 344-399 in the cytoplasmic C-terminal tail (Orthmann-Murphy J L, et al. Mol Cell Neurosci 2007; 34:629-41); we used human CNS tissue and positive oligodendrocyte staining as a positive control and primary antibody delete as a negative control (data not shown). Cultured HeLa cells were routinely fixed and stained with the primary antibodies against Cx47, along with a nuclear marker, and transfected cells were identified by their EGFP signal. Plaques were imaged using an Olympus Fluoview 1000 confocal microscope, 100× oil objective.

CC1(C)[C@@H](O)CC[C@]2(C)[C@H]3C(=O)C=C4[C@@H]5C[C@@](C)(C(=O)O)CC[C@]5(C)CC[C@@]4(C)[C@]3(C)CC[C@@H]12 [GRA, 18α-glycyrrhetinic acid]
GJIC by dye transfer in response to gap junction inhibitors [1]: significantly reduced

SRPTEKTIFII [Gap 27, Synthetic connexin-mimetic peptide targeted to extracellular loop 2 of Cx43]
GJIC by dye transfer in response to gap junction inhibitors [1]: significantly reduced

B1: H409Y: Cx47 missense mutant H409Y (1225C>T), C terminal, construct expressed in HeLa cells or LECs (protein, listed as Homo sapiens)
chain: MSWSFLTRLLEEIHNHSTFVGKVWLTVLVVFRIVLTAVGGEAIYSDEQAKFTCNTRQPGCDNVCYDAFAPLSHVRFWVFQIVVISTPSVMYLGYAVHRLARASEQERRRALRRRPGPRRAPRAHLPPPHAGWPEPADLGEEEPMLGLGEEEEEEETGAAEGAGEEAEEAGAEEACTKAVGADGKAAGTPGPTGQHDGRRRIQREGLMRVYVAQLVARAAFEVAFLVGQYLLYGFEVRPFFPCSRQPCPHVVDCFVSRPTEKTVFLLVMYVVSCLCLLLNLCEMAHLGLGSAQDAVRGRRGPPASAPAPAPRPPPCAFPAAAAGLACPPDYSLVVRAAERARAHDQNLANLALQALRDGAAAGDRDRDSSPCVGLPAASRGPPRAGAPASRTGSATSAGTVGEQGRPGTYERPGAKPRAGSEKGSASSRDGKTTVWI
LEC spread [2]: 0.07 tiers
dye transfer of Lucifer yellow after microinjection compared to WT-hCx47-EGFP expressing LECs (in words) [2]: dramatically impaired dye transfer
wound assay [3]: 0.73
electrical coupling [4]: 46.4 pA/mV
electrical coupling / functional channels in HeLa cell pairs (in words) [4]: well coupled
Cx47 plaque formation (in words) [5]: Cx47 intercellular plaques

B2: P381S: Cx47 missense mutant P381S (1141C>T), C terminal, construct expressed in HeLa cells or LECs (protein, listed as Homo sapiens)
chain: B1 chain with P381S, Y409H
LEC spread [2]: 2.26 tiers
dye transfer of Lucifer yellow after microinjection compared to WT-hCx47-EGFP expressing LECs (in words) [2]: significantly enhanced dye transfer
wound assay [3]: 0.70
electrical coupling [4]: 48.2 pA/mV
electrical coupling / functional channels in HeLa cell pairs (in words) [4]: well coupled
Cx47 plaque formation (in words) [5]: Cx47 intercellular plaques
